Test results taken from patent publication US20120269734.

Assays:
[1] = test system: kemptide (substrate of PKA), conjugated to the bioluminescent protein Luc8 as in the method of FIG. 21b
[2] = target: T1, Luc8 fusion protein (Luc8-PLGVR-6xHis)
T1 chain: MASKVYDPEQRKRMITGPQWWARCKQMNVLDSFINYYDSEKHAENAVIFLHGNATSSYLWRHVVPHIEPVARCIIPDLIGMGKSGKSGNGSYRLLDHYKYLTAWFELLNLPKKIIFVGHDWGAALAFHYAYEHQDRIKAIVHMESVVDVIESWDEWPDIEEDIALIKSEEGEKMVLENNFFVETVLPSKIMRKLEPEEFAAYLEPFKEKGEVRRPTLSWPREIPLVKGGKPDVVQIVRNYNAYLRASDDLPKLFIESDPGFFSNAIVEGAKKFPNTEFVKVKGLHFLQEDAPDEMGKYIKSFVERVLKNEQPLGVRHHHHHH

Protein Kinase A (PKA)
BRET ratio after the PKA phosphorylation (method of FIG. 21b) [1]: The BRET ratio was increased from 0.15 to 0.47 after the PKA phosphorylation of the substrate kemptide | BRET ratio before the PKA phosphorylation (method of FIG. 21b) [1]: The BRET ratio was increased from 0.15 to 0.47 after the PKA phosphorylation of the substrate kemptide

B1: active human recombinant MMP-2 (CalBiochem) (protein)
chain: YNFFPRKPKWDKNQITYRIIGYTPDLDPETVDDAFARAFQVWSDVTPLRFSRIHDGEADIMINFGRWEHGDGYPFDGKDGLLAHAFAPGTGVGGDSHFDDDELWTLGEGQVVRVKYGNADGEYCKFPFLFNGKEYNSCTDTGRSDGFLWCSTTYNFEKDGKYGFCPHEALFTMGGNAEGQPCKFPFRFQGTSYDSCTTEGRTDGYRWCGTTEDYDRDKKYGFCPETAMSTVGGNSEGAPCVFPFTFLGNKYESCTSAGRSDGKMWCATTANYDDDRKWGFCPDQGYSLFLVAAHEFGHAMGLEHSQDPGALMAPIYTYTKNFRLSQDDIKGIQELYGASPDIDLGTGPTPTLGPVTPEICKQDIVFDGIAQIRGEIFFFKDRFIWRTVTPRDKPMGPLLVATFWPELPEKIDAVYEAPQEEKAVFFAGNEYWIYSASTLERGYPKPLTSLGLPPDVQRVDAAFNWSKNKKTYIFAGDKFWRYNEVKKKMDPGFPKLIADAWNAIPDNLDAVVDLQGGGHSYFFKGAYYLKLENQSLKSVKFGSIKSDWLGC
BRET ratio after 24 hours at 22° C., MMP-2 at 20 ng/mL (~300 pM) [2]: the BRET ratio decreased by ~20% from 1.6 to 1.3 for a concentration of MMP-2 of 20 ng/mL (~300 pM) | BRET ratio at the start, MMP-2 at 20 ng/mL (~300 pM) [2]: the BRET ratio decreased by ~20% from 1.6 to 1.3 for a concentration of MMP-2 of 20 ng/mL (~300 pM) | BRET ratio before the MMP-2 cleavage (t=0); fusion protein 16 µM, MMP-2 10 µg/mL, 22° C. [2]: the BRET ratio was 1.64 | BRET ratio within 30 minutes of incubation with MMP-2 (10 µg/mL) [2]: Within 30 minutes, the BRET ratio dropped to 0.62 | BRET ratio within 2 hours of incubation with MMP-2 (10 µg/mL) [2]: the reaction was nearly complete within 2 hours with a BRET ratio of 0.21 | NuPAGE assay [2]: NuPAGE assay detected a protein product with a smaller size, confirming the hydrolysis by MMP-2 | decrease of the BRET ratio after 24 hours at 22° C. with MMP-2 at 20 ng/mL (~300 pM) [2]: the BRET ratio decreased by ~20% from 1.6 to 1.3 for a concentration of MMP-2 of 20 ng/mL (~300 pM) | gel electrophoresis (4-12% Bis-Tris denaturing gel, Coomassie) [2]: Gel electrophoresis analysis confirmed the cleavage of the fusion protein by MMP-2
